In PMC10787225 (Computational and Structural Biotechnology Journal, 2023):

Columns and labels:
[1] = Thioflavin T (ThT) aggregation assay; assay type: physicochemical; conditions: for ThT fluorescence time course / ThT / Shape of ThT time course / kind of aggregates: 20 mM NaPi, pH 7.4, 50 mM NaCl, 37 °C; for ThT fluorescence time course / ThT: 25 µM ThT, triplicate; for ThT: peptide 20–550 µM, up to 85 h, 300 rpm, glass bead; for Shape of ThT time course / kind of aggregates: 20–550 µM peptide; for ThT fluorescence of peptide alone: 50 mM Tris, pH 8.5, 37 °C, 40 µM ThT
Description: All ThT aggregation assays were done in Greiner 96-well half-area, clear bottom, low-binding plates. The measurements themselves were done in a BMG CLARIOstar plate reader at 37 °C and 300 rpm shaking in orbital mode with one glass bead (0.75–1 mm, Roth) per well. Wells with samples were always surrounded by wells filled with liquid, either other samples or 150 μl water, to counter potential artefacts due to evaporation. […] Final concentrations of 25 µM ThT and 0.04% sodium azide (NaN3) were added. The plate was sealed with sealing tape and put into the plate reader, heated to 37 °C, and ThT fluorescence was read in 1000 cycles of 300 s each using bottom optics with excitation at 448 nm (10 nm bandwidth) and emission at 482 nm (10 nm bandwidth). […] Samples contained 40 µM ThT and 0.04% NaN3.
(§1) Fig. 4 Test set of eight protein segments. (A) List of the investigated peptides. Underlined stretches in the peptide sequences correspond to the predicted amyloidogenic β-hairpins. A peptide was considered ‘soluble’ when no visible precipitation occurred upon dissolution of the lyophilized peptide in 20 mM NaPi, pH 7.4, 50 mM NaCl, to a final concentration of 20 µM. […] (B) Conformations of investigated segments (red) in the context of their source proteins.

[2] = tested on: β-wrapin AS10; test: 1H-15N HSQC NMR detection of β-hairpin formation upon AS10 binding; conditions: 25 °C; for NMR signature of β-hairpin folding coupled to AS10 binding (1H–15N HSQC of 15N-AS10): 100 µM 15N-AS10 mixed with 20% molar excess of peptide, pH 7.4; for NMR β-hairpin: 100 µM 15N-AS10 with 20% molar excess of peptide, 20 mM sodium phosphate, pH 7.4, 50 mM NaCl
Description: The NMR spectra were acquired at 25 °C using VNMRS instruments (Varian) at proton frequencies of 800 and 900 MHz, each equipped with a cryogenically cooled Z-axis pulse-field-gradient (PFG) triple resonance probe. The sample buffer was 20 mM sodium phosphate, pH 7.4, 50 mM NaCl, supplemented with 10% D2O. For detection of complex formation, samples contained 100 μM ^15N-labeled AS10, expressed and purified as described, [43], and a 20% excess of the unlabeled peptide. For determination of β-sheet registries, NMR samples contained ^13C^15N-labeled fusion constructs in concentrations between 360–700 μM. Backbone assignments were obtained using BEST-TROSY experiments. Nuclear Overhauser effect (NOE) based distance restraints for β-sheet registry determination were derived from 3D (^1H–^1H-^15N)-NOESY-HSQC (120 ms mixing time) and (^1H–^13Cali-^1H)-HSQC-NOESY (100 ms mixing time) experiments. NMR data were processed using NMRPipe and analyzed with CcpNMR [50].
To test for β-hairpin formation in the peptides upon binding to AS10 we performed NMR spectroscopy. ^1H–^15N HSQC NMR spectroscopy using ^15N-labeled AS10 (^15N-AS10) and unlabeled binding partner leads to characteristic changes upon β-hairpin folding coupled to binding. These include a great increase in resonance dispersion, appearance of four amide proton resonances in the glycine region (^15N chemical shift <110 ppm) stemming from Gly-13 and Gly-14 in the two AS10-subunits, as well as appearance of amide proton resonances with shift values typical for β-sheet conformation (high ^1H and high ^15N chemical shifts).

[3] = molecular target: β-wrapin AS10; test: Isothermal titration calorimetry (ITC) of peptide binding to AS10; conditions: 30 °C, 30 µM AS10 in cell, peptide titrated from syringe, 20 mM sodium phosphate, pH 7.4, 50 mM NaCl, 1:1 binding model
Description: ITC was performed at 30 °C using a Microcal iTC200 calorimeter (GE Healthcare). AS10 was filled into the cell at a concentration of 30 µM in 20 mM sodium phosphate, pH 7.4, 50 mM NaCl. Peptides were titrated from the syringe in approximately 10-fold higher concentrations. Heats of post-saturation injections were averaged and subtracted from each injection to correct for heats of dilution and mixing. Dissociation constants were obtained from a nonlinear least-squares fit to a 1:1 binding model using MicroCal Origin.

[4] = Solubility by visible precipitation upon dissolution of lyophilized peptide; conditions: aqueous buffer, µM concentrations, neutral pH; visual
Description: as §1

[5] = Atomic force microscopy (AFM) of samples at the end of ThT aggregation assays; assay type: physicochemical; conditions: for AFM aggregate morphology: end of ThT aggregation assay in 20 mM NaPi, pH 7.4, 50 mM NaCl, dried on mica; for AFM aggregate morphology of individual peptide: end of ThT assay at moderate peptide concentrations without ThT fluorescence, 50 mM Tris, pH 8.5
Description: (§2) For AFM imaging, 2 μl samples were taken out of the wells at the end of the ThT aggregation assays, put onto a freshly cleaved muscovite mica surface and dried during incubation for 10 min under the clean bench. Subsequently, the samples were washed with 100 μl ddH2O in three steps and dried with a stream of N2 gas. Imaging was performed in intermittent contact mode (AC mode) in a JPK NanoWizard 3 atomic force microscope using a silicon cantilever with silicon tip (OMCL-AC160TS-R3, Olympus) with a typical tip radius of 9 ± 2 nm, a force constant of 26 N/m and resonance frequency around 300 kHz. The images were processed using JPK DP Data Processing Software (version spm-5.0.84).

[6] = tested on: PAP(248−286); test: ThT aggregation assay and AFM of PAP(248−286) in presence of added peptide; assay type: biochemical, human; conditions: 500 µM PAP(248−286), added peptide 25–100 µM, 50 mM Tris, pH 8.5, 37 °C, 40 µM ThT
Description: (§3) All ThT aggregation assays were done in Greiner 96-well half-area, clear bottom, low-binding plates. The measurements themselves were done in a BMG CLARIOstar plate reader at 37 °C and 300 rpm shaking in orbital mode with one glass bead (0.75–1 mm, Roth) per well. Wells with samples were always surrounded by wells filled with liquid, either other samples or 150 μl water, to counter potential artefacts due to evaporation. […] Final concentrations of 25 µM ThT and 0.04% sodium azide (NaN3) were added. The plate was sealed with sealing tape and put into the plate reader, heated to 37 °C, and ThT fluorescence was read in 1000 cycles of 300 s each using bottom optics with excitation at 448 nm (10 nm bandwidth) and emission at 482 nm (10 nm bandwidth). […] PAP(248−286) and SEM1(86−107) were kept at constant concentrations of 500 and 300 µM, respectively. […] Samples contained 40 µM ThT and 0.04% NaN3.
as §2

[7] = tested on: SEM1(86−107); test: ThT aggregation assay and AFM of SEM1(86−107) in presence of added peptide; assay type: biochemical, human; conditions: 300 µM SEM1(86−107), added peptide 25–100 µM, 50 mM Tris, pH 8.5, 37 °C, 40 µM ThT
Description: as §3, §2

[8] = molecular target: β-wrapin AS10; test: ITC; 30 µM AS10 in the cell, peptides titrated from the syringe at approximately 10-fold higher concentrations; 30 °C; 20 mM sodium phosphate, pH 7.4, 50 mM NaCl; fit to a 1:1 binding model
[9] = peptide alone 25–100 µM (up to 100 µM)

## NBPF1(928−946): synthetic peptide of predicted β-hairpin-forming amyloidogenic segment 928−946 of NBPF1 (RSAFYILEQQRVGWALDMD)
[1]; 20–25 µM peptide
  ThT fluorescence time course: no increase in fluorescence intensity was detected
[1]; peptide increased to 500–550 µM
  ThT fluorescence time course: remained ThT negative
[2]
  NMR signature of β-hairpin folding coupled to AS10 binding (1H–15N HSQC of 15N-AS10): no change
[3]
  Affinity to AS10 (dissociation constant KD): heat signals were not observed

## TTC5(335−361): synthetic peptide of predicted β-hairpin-forming amyloidogenic segment 335−361 of TTC5 (AVILGKVVFSLTTEEKVPFTFGLVDSD)
[1]
  ThT: +
[2]
  NMR signature of β-hairpin folding coupled to AS10 binding (1H–15N HSQC of 15N-AS10): signature was observed
  NMR β-hairpin: +
[3]; read-out: Affinity to AS10 (dissociation constant KD)
  Kd: 4.7 ± 0.9 µM

## CYP2W1(176−204): synthetic peptide of predicted β-hairpin-forming amyloidogenic segment 176−204 of CYP2W1 (SNITFALLFGRRFDYRDPVFVSLLGLIDE)
[4]
  Precipitate formation upon dissolution: immediate precipitation
[1]
  Shape of ThT time course / kind of aggregates: ThT fluorescence was high from the beginning
  ThT: +
[2]
  NMR signature of β-hairpin folding coupled to AS10 binding (1H–15N HSQC of 15N-AS10): signature was also observed
  NMR β-hairpin: +
[5]
  AFM aggregate morphology: fibrillar aggregates confirming amyloid formation were detected

## PAP(248−286): PAP fragment which forms functional amyloid in semen (GIHKQKEKSRLQGGVLVNEILNHMKRATQIPSYKKLIMY) [reference compound]
[1]; peptide alone 500 µM
  ThT fluorescence of peptide alone: did not exhibit ThT fluorescence
[5]
  AFM aggregate morphology of individual peptide: aggregates of amorphous shape

## 3-PGDH(298−319): synthetic peptide of predicted β-hairpin-forming amyloidogenic segment 298−319 of 3-PGDH (EIAVQFVDMVKGKSLTGVVNAQ; UniProt O43175 298-319, looked up, fragment)
[4]
  Precipitate formation upon dissolution: immediate precipitate formation upon dissolution
[1]
  Shape of ThT time course / kind of aggregates: can form both ThT-positive as well as ThT-negative aggregates
  ThT: +
[2]
  NMR signature of β-hairpin folding coupled to AS10 binding (1H–15N HSQC of 15N-AS10): no change

## PAP Str2(200−208): β-strand peptide, constituent segment 200−208 of PAP(185−208)
[1]; [9]
  ThT fluorescence of peptide alone: do not exhibit ThT fluorescene
[6]
  Effect of added peptide on ThT time trace of PAP(248−286): induced increases in ThT fluorescence, albeit with somewhat longer lag-times
[7]
  Effect of added peptide on ThT time trace of SEM1(86−107): induced increases in ThT fluorescence, albeit with somewhat longer lag-times

## SEM1(86−107): semen amyloid peptide, fragment of semenogelin-1 (DLNALHKTTKSQRHLGGSQQLL) [reference compound]
[1]; peptide alone 300 µM
  ThT fluorescence of peptide alone: did not exhibit ThT fluorescence
[5]
  AFM aggregate morphology of individual peptide: aggregates of amorphous shape

## NDUFS7(104−129) (from UniProt O75251 104-129) (peptide)
[8]
  Kd: 4.7 µM

## PAP Str1(186−194): β-strand peptide, constituent segment 186−194 of PAP(185−208) (DFIATLGKL)
[1]; [9]
  ThT fluorescence of peptide alone: concentration-dependent increase in ThT fluorescence within minutes to a few hours
[6]
  Effect of added peptide on ThT time trace of PAP(248−286): ThT time traces exhibited additional phases of rapid growth
[7]
  Effect of added peptide on ThT time trace of SEM1(86−107): ThT time traces exhibited additional phases of rapid growth

## MIC26(153−178): synthetic peptide of predicted β-hairpin-forming amyloidogenic segment 153−178 of MIC26 (QQAIVFAQVSGERLYDWGLRGYIVIE; UniProt Q9BUR5 153-178, looked up, fragment)
[4]
  Precipitate formation upon dissolution: immediate precipitation
[1]
  Shape of ThT time course / kind of aggregates: ThT fluorescence was high from the beginning
  ThT: +
[2]
  NMR signature of β-hairpin folding coupled to AS10 binding (1H–15N HSQC of 15N-AS10): no change
[5]
  AFM aggregate morphology: fibrillar aggregates confirming amyloid formation were detected

B1: PAP(185−208) (peptide)
peptide: KDFIATLGKLSGLHGQDLFGIWSK
[8]
  Kd: 39 µM

B2: TTC5(335−361) (peptide)
peptide: AVILGKVVFSLTTEEKVPFTFGLVDSD
[8]
  Kd: 4.7 µM
